In data set [1] the target is T1, Klf4 ZnF1-3 WT (E446) (Mus musculus, UniProt Q60793 396-483). The data set can be described thus: fluorescence polarization. In general terms: Polarisation of emitted light reports the rotation of a fluorescent probe.
For data set [2], the target named is T2, Klf4 ZnF1-3 E446P (Mus musculus, UniProt Q60793 396-483, E446P). The data set can be described thus: fluorescence polarization.
For data set [3], the target named is T1, Klf4 ZnF1-3 WT (E446). The data set can be described thus: fluorescence polarization. This is another data set of the same source.
Another data set deals with Klf4 ZnF1-3 E446D (Mus musculus, UniProt Q60793 396-483, E446D). The data set can be described thus: X-ray crystallography.
Data set [4] concerns the target T2, Klf4 ZnF1-3 E446P. The data set can be described thus: X-ray crystallography.
Data set [5] has as its target T2, Klf4 ZnF1-3 E446P. The data set can be described thus: X-ray crystallography. The source holds these as a separate data set.
Data set [6] has as its target T1, Klf4 ZnF1-3 WT (E446). The data set can be described thus: X-ray crystallography.
Data set [7] has as its target T1, Klf4 ZnF1-3 WT (E446). The data set can be described thus: X-ray crystallography. The source holds these as a separate data set.
The target in data set [8] is T2, Klf4 ZnF1-3 E446P. The data set can be described thus: fluorescence polarization. The source holds these as a separate data set.

Read-outs that look alike come from different tables or passages of the source.

T1 sequence (Q60793 396-483): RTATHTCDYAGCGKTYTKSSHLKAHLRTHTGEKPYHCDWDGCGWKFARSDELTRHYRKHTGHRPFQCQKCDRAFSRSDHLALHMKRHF
T2 sequence (Q60793 396-483 E446P): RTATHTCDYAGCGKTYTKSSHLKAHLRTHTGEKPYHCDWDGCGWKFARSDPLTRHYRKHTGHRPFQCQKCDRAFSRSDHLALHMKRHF
Klf4 ZnF1-3 E446D, sequence (Q60793 396-483 E446D): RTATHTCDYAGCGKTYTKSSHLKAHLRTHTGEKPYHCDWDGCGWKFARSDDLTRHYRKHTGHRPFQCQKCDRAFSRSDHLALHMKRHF

B1: TpG FP probe (dsDNA)
DNA 1: GAGGTGTGGC
DNA 2: TTGCCACACCTC
As to B1, the binding result with Klf4 ZnF1-3 WT (E446) [1] is listed as “binds”.

B2: 5mCpG hemimethylated FP probe (dsDNA)
DNA 1: GAGGCGTGGC
DNA 2: TTGCCACGCCTC
modifications: 5mC at position 5 of strand 1; strand 2 unmethylated
As usually defined, the Kd is the equilibrium constant for the complex coming apart. As to B2, in the data set with Klf4 ZnF1-3 E446P [2], the Kd is less than 5 nM. The binding signal in the data set with Klf4 ZnF1-3 WT (E446) [3] is 1.5 fold tighter than P1 with N1.

B3: CpG/CpG crystal duplex (dsDNA)
DNA 1: GAGGCGTGGC
DNA 2: GCCACGCCTC
Consider B3, for which the binding result with Klf4 ZnF1-3 E446D is given as “binds”.

B4: TpG crystal duplex (E446P complex) (dsDNA)
DNA 1: GAGGTGTGGC
DNA 2: GCCACACCTC
modifications: methylation of the opposite-strand CpA not stated in the material
For the molecule B4, the binding result with Klf4 ZnF1-3 E446P [4] is listed as “binds”.

B5: 5mCpG/5mCpG crystal duplex (dsDNA)
DNA 1: GAGGCGTGGC
DNA 2: GCCACGCCTC
modifications: 5mC at position 5 of strand 1 and position 5 of strand 2
For B5, the binding result in the data set with Klf4 ZnF1-3 E446P [5] is given as “binds”.

B6: TpG/CpA crystal duplex (dsDNA)
DNA 1: GAGGTGTGGC
DNA 2: GCCACACCTC
On to B6, for which the binding result in the data set with Klf4 ZnF1-3 WT (E446) [6] was “binds”.

B7: TpG/5mCpA crystal duplex (dsDNA)
DNA 1: GAGGTGTGGC
DNA 2: GCCACACCTC
modifications: 5mC at position 5 of strand 2
With B7, the binding result with Klf4 ZnF1-3 WT (E446) [7] is listed as “binds”.

B8: CpG unmodified FP probe (dsDNA)
DNA 1: GAGGCGTGGC
DNA 2: TTGCCACGCCTC
Turning to B8, the binding signal with Klf4 ZnF1-3 E446P [8] was ~4 fold tighter than P1 with N1.

The values are drawn from publication PMC5137437.
